Paper PMC4663627

Biological target: T1, p19 (GST-p19) (Cymbidium ringspot virus (CymRSV)) (UniProt P17457)
T1 sequence: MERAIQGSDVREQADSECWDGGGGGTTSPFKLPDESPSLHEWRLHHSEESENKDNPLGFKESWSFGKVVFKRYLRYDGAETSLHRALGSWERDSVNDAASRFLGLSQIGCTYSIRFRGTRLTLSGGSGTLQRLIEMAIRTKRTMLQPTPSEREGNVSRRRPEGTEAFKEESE
Assay: SiNW-FET conductance, Langmuir fit
Details: phosphate solution (240 uM NaH2PO4, 760 uM Na2HPO4), pH 7.4, Debye length 6.1 nm, temperature not given

Sequence	Kd (5'-phosphate)	Kd
CGUACGCGGAAUACUUCGAUU / UCGAAGUAUUCCGCGUACGUU [ds-sRNA-0]	16 nM	–
GCGACGCGGAAUACUUCGAUU / UCGAAGUAUUCCGCGUACGUU [ds-sRNA-2]	–	227 nM
GCGACGCGGAAUACUUGCUUU / UCGAAGUAUUCCGCGUACGUU [ds-sRNA-3]	–	1140 nM
